The record followed here is article PMC12412624, “Engineered Cas12j‐8 is a Versatile Platform for Multiplexed Genome Modulation in Mammalian Cells”.

The subject of data set [1] is T1, dCas12j-8 E258R+D313R+D495R+E547R E258R;D313R;D495R;E547R;D369A;E567A;D658A (bacteriophage (metagenome)).
T1 sequence: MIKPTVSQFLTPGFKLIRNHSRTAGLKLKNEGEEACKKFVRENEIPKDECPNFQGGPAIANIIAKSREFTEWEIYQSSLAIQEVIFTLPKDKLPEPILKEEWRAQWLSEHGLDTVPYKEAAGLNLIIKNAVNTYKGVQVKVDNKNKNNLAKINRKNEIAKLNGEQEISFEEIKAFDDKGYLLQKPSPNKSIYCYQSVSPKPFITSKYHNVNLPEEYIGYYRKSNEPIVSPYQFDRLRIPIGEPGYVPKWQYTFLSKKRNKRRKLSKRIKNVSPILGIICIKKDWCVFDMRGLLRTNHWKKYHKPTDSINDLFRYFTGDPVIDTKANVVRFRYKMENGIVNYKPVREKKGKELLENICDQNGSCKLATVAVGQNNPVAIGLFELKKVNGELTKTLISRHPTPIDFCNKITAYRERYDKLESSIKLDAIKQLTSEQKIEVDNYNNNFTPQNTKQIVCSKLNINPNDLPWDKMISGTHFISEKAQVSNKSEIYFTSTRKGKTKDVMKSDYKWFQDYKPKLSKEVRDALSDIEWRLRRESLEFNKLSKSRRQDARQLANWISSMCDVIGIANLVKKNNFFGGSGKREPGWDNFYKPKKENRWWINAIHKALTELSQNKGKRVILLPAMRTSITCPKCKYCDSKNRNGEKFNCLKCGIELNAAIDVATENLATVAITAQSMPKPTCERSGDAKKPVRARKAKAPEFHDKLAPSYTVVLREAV
As to conditions: HEK293T cells; panel 1e (compare within a panel only); scale: mean GFP / mean GFP of wild type, printed, no background subtraction.

Data set [2] relates to T2, dCas12j-8 E157R E157R;D369A;E567A;D658A (bacteriophage (metagenome)).
T2 sequence: T1 sequence with E157R, R258E, R313D, R495D, R547E
The following applies: HEK293T cells; panel 1c (compare within a panel only); scale: mean GFP / mean GFP of wild type, printed, no background subtraction.

For data set [3], the system named is T3, dCas12j-8 E258R+D313R E258R;D313R;D369A;E567A;D658A (bacteriophage (metagenome)).
T3 sequence: T1 sequence with R495D, R547E
As to conditions: HEK293T cells; panel 1d (compare within a panel only); scale: mean GFP / mean GFP of wild type, printed, no background subtraction.

Residue numbers refer to the chain shown, from its start.

Turning to “CUUUCAAGACUAAUAGAUUGCUCCUUACGAGGAGACACUCCCUAUCAGUGAUAGAG / TTNACTCCCTATCAGTGATAGAG / CTCTATCACTGATAGGGAGTNAA [TetO]”, the binding signal was 4.81 in data set [1], 1.39 in data set [2] and 3.3 in data set [3].
